In patent US20230272056A1 (Merck Sharp & Dohme, published 2023):
Substitutions are numbered along the chain they refer to. Names may count otherwise.

B1: 16BLM (antibody, human IgG1, kappa, L234A L235A, V domains shown)
VH: EVQLVQSGAEVKKPGASVKVSCKASGYTFTSYDMHWVRQAPGQGLEWMGRIDPQSGGIKYAQKFQGRATLTVDTSTSTAYMELSRLRSDDTAVYYCARWDYGGYFDVWGQGTLVTVSS
VL: DIQMTQSPSSLSASVGDRVTITCRASQDIYNYLNWYQQKPGKAVKLLIYYTSVLETGVPSRFSGSGSGTDYTLTISSLQPEDFATYFCQQGDTLPWTFGQGTKLEIKR
notes: IgG1 L234A L235A D265S/kappa; also called 79BLH; 52BMD
B2: 19BLM (antibody, human IgG1, kappa, L234A L235A, V domains shown)
VH: B1 VH with W99Y, Y101H
VL: B1 VL with V53Y
notes: IgG1 L234A L235A D265S/kappa; also called 82BLH; 55BMD
B3: 11BLM (antibody, human IgG1, kappa, L234A L235A, V domains shown)
VH: B1 VH with K59R
VL: B1 VL
notes: IgG1 L234A L235A D265S/kappa; also called 74BLH; 47BMD
B4: 12BLM (antibody, human IgG1, kappa, L234A L235A, V domains shown)
VH: B1 VH with I58V
VL: B1 VL with T93E
notes: IgG1 L234A L235A D265S/kappa; also called 75BLH; 48BMD
B5: 18BLM (antibody, human IgG1, kappa, L234A L235A, V domains shown)
VH: B1 VH with W99Y, Y101H
VL: B1 VL with V53R
notes: IgG1 L234A L235A D265S/kappa; also called 81BLH; 54BMD
B6: 15BLM (antibody, human IgG1, kappa, L234A L235A, V domains shown)
VH: B1 VH
VL: B1 VL with V53R
notes: IgG1 L234A L235A D265S/kappa; also called 78BLH; 51BMD
B7: 07BLM (antibody, human IgG1, kappa, L234A L235A, V domains shown)
VH: B1 VH with K59R
VL: B1 VL with N31S, V53N
notes: IgG1 L234A L235A D265S/kappa; also called 70BLH; 43BMD

target: T1, human LAP-TGFB1 Fc fusion (human); experiment: SPR pH 7.4, antigen captured on Fab 54BLH
T1 construct: also called human LAP-TGFβ1-Fc; human LAP-TGFβ-Fc isoform 1
Text: (§1) A Series S C1 sensor chip (Cytiva, catalog BR100535) was immobilized with low densities of high affinity Fab 54BLH on a Biacore T200 instrument with 1×HBS-EP+(Teknova, catalog H8022). This surface served as a monovalent capture surface for a low-density layer of heterodimer human LAP-TGFβ1 complex leaving the second binding site exposed for monovalent kinetic binding analysis with both mAbs and Fabs. Immobilized flow cell 1 served as the reference and flow cells 2, 3 and 4 were used to evaluate the binding interaction between human LAP-TGFβ1 and yeast display mutant mAbs and Fabs.
(§2) Approximately 15-25 RU of human LAP-TGFβ1-Fc was captured to the Fab capture surface followed by injection of 1:3 serially diluted Fabs and mAbs from 6 nM to 0.07 nM (Fabs: 54BLH, 55BLH, 60BLH, 63BLH, 64BLH-mAbs: 69BLH, 70BLH) and 1:3 serially diluted Fab and mAbs from 60 nM to 0.74 nM (Fabs: 59BLH, 66BLH, 67BLH—mAbs: 74BLH, 75BLH, 78BLH, 79BLH, 81BLH, 82BLH) including 0 nM. The binding data was double referenced by subtraction of signal from a reference flow cell and the 0 nM injections for evaluation of Fabs and mAbs respectively. Binding rate constants were calculated/determined by fitting the data with a 1:1 binding model (Cytiva Biacore T200 Evaluation software 3.0).

T1 sequence (chain, as listed by the source limits assumed): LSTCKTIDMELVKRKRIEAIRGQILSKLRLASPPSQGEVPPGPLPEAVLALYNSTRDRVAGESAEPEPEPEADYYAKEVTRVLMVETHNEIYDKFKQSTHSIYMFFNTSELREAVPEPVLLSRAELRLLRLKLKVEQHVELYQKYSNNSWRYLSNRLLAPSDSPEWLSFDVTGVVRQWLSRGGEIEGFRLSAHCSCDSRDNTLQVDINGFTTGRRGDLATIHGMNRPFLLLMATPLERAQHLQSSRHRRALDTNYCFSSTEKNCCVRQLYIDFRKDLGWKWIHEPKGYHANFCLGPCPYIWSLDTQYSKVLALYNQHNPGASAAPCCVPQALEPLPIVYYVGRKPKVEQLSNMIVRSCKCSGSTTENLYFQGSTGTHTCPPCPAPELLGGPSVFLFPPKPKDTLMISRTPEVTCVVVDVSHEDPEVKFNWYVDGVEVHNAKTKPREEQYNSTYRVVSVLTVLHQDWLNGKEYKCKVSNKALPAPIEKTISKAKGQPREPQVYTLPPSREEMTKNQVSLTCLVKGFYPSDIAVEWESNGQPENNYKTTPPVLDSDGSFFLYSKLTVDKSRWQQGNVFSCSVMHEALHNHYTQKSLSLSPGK

Row | Fab/mAb KD Ratio | Kd | koff | kon | Binder
1 | 1.6 | 0.038 nM | 0.000552 s⁻¹ | 1.44e+07 M⁻¹ s⁻¹ | B1
2 | 13.3 | 0.178 nM | 0.014 s⁻¹ | 7.82e+07 M⁻¹ s⁻¹ | B2
3 | 1.7 | 0.026 nM | 0.000374 s⁻¹ | 1.47e+07 M⁻¹ s⁻¹ | B3
4 | 3.2 | 0.0111 nM | 0.000212 s⁻¹ | 1.91e+07 M⁻¹ s⁻¹ | B4
5 | 3.3 | 0.959 nM | 0.00518 s⁻¹ | 5.4e+06 M⁻¹ s⁻¹ | B5
6 | 4 | 0.0876 nM | 0.00196 s⁻¹ | 2.22e+07 M⁻¹ s⁻¹ | B6
7 | 0.3 | 0.047 nM | 0.000671 s⁻¹ | 1.45e+07 M⁻¹ s⁻¹ | B7

target: T2, human LAP-TGFβ1 (construct not stated) (human, UniProt P01137 30-390); experiment: KinExA, mAb as constant binding partner
T2 construct: also called human LAP-TGFβ isoform 1; titrant
Protocol: An orthogonal kinetic exclusion assay (KinExA) method was used in this study to measure the affinities of affinity-matured anti-LAP-TGFβ1 antibodies (referred to as the constant binding partner, CBP) and human LAP-TGFβ1 (referred to as the titrant). To determine the free CBP concentration in solution, biotinylated human LAP-TGFβ1 coated PMMA (Sapidyne, catalog 440176) beads were prepared by first coating with biotin-BSA (ThermoScientific, catalog 29130) followed by streptavidin (Invitrogen, catalog S888), and a final coat with biotinylated human LAP-TGFβ1-Fc.
For association rate analysis, an experimentally optimized constant concentration of CBP and titrant, were mixed 1:1 and free CBP was measured at timed intervals ranging from 15 to 10000 seconds. […] The data were analyzed with KinExA Pro software (version 4.4.26) where the free CBP binding signals were converted into percent free response, plotted against time (seconds) and processed with the n-curve software “Kinetics, Direct” analysis method.
For equilibrium affinity analysis, two experimentally optimized CBP concentrations were combined with 1:2 serially diluted titrant, human LAP-TGFβ1, and incubated at room temperature to achieve equilibrium. […] The data was analyzed with KinExA Pro software (version 4.4.26) where the free CBP binding signals were converted into percent free response and plotted against the titrant concentration series. The equilibrium KD was determined by processing with n-curve software “Equilibrium” analysis method.

T2 sequence (P01137 30-390 limits assumed): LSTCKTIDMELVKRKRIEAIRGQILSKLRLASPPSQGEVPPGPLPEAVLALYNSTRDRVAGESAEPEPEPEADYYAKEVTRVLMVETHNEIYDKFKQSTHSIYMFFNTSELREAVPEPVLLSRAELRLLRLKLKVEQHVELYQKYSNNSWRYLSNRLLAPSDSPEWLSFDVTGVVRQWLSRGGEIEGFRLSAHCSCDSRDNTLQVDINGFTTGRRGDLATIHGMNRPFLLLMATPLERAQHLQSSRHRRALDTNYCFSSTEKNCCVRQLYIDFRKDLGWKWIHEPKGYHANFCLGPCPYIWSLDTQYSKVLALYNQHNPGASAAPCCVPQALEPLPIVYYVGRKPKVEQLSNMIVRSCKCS

Row | Kd | koff | kon | Binder
8 | 0.00275 nM | 1.38e-05 s⁻¹ | 5.03e+06 M⁻¹ s⁻¹ | B1
9 | 0.068 nM | 1.98e-06 s⁻¹ | 29200 M⁻¹ s⁻¹ | B2
10 | 0.00133 nM | 8.14e-06 s⁻¹ | 1.63e+07 M⁻¹ s⁻¹ | B3
11 | 0.000367 nM | 7.71e-06 s⁻¹ | 2.04e+07 M⁻¹ s⁻¹ | B4
12 | 0.0621 nM | 6.09e-06 s⁻¹ | 98300 M⁻¹ s⁻¹ | B5
13 | 0.00235 nM | 2.56e-05 s⁻¹ | 1.09e+07 M⁻¹ s⁻¹ | B6
14 | 0.00224 nM | 2.82e-05 s⁻¹ | 1.28e+07 M⁻¹ s⁻¹ | B7

target: T1, human LAP-TGFB1 Fc fusion; experiment: SPR pH 6.0, antigen captured on Fab 54BLH
Text: as §1, §2

Row | Fab/mAb KD Ratio | Kd | koff | kon | Binder
15 | 1.6 | 0.11 nM | 0.00122 s⁻¹ | 1.12e+07 M⁻¹ s⁻¹ | B1
16 | 5.5 | 3.43 nM | 0.0365 s⁻¹ | 1.07e+07 M⁻¹ s⁻¹ | B2
17 | 1.3 | 0.133 nM | 0.000892 s⁻¹ | 6.75e+06 M⁻¹ s⁻¹ | B3
18 | 2.2 | 0.136 nM | 0.000936 s⁻¹ | 6.86e+06 M⁻¹ s⁻¹ | B4
19 | 1.8 | 9.11 nM | 0.0489 s⁻¹ | 5.65e+06 M⁻¹ s⁻¹ | B5
20 | 3.2 | 0.331 nM | 0.00399 s⁻¹ | 1.21e+07 M⁻¹ s⁻¹ | B6
21 | 2.2 | 0.155 nM | 0.00131 s⁻¹ | 8.47e+06 M⁻¹ s⁻¹ | B7

target: human LAP-TGFβ1 expressed on P3U1 cells (human, UniProt P01137 30-390); experiment: cell-based or functional assay
Sequence (P01137 30-390): as the sequence (P01137 30-390 limits assumed) above

Row | Average EC50 | ELISA assay 2 EC50 | ELISA assay #1 EC50 | Binder
22 | 0.104 µg/mL | 0.126 µg/mL | 0.0816 µg/mL | B1
23 | 0.179 µg/mL | 0.205 µg/mL | 0.152 µg/mL | B2
24 | 0.083 µg/mL | 0.112 µg/mL | 0.0539 µg/mL | B3
25 | 0.063 µg/mL | 0.096 µg/mL | 0.0295 µg/mL | B4
26 | 0.052 µg/mL | 0.006 µg/mL | 0.0982 µg/mL | B5
27 | 0.231 µg/mL | 0.243 µg/mL | 0.219 µg/mL | B6
28 | 0.076 µg/mL | 0.119 µg/mL | 0.0332 µg/mL | B7
